Assay results as given in paper PMC7749160, “Mycobacterial HelD is a nucleic acids-clearing factor for RNA polymerase” (Nature Communications, 2020).

Key:
[1] = biological target: T1, β subunit of Mycobacterium smegmatis RNA polymerase (as in the recombinant core m2) (Mycobacterium smegmatis, UniProt P60281 1-1169); test: cryo-EM structure; HelD and RNAP core mixed at a molar ratio of 3:1, 4 °C, 15 min; complex isolated on Superose 6 Increase in 20 mM Tris-HCl pH 7.8, 150 mM NaCl, 10 mM MgCl2, 1 mM DTT; three states (I, II, III) from one sample; details: both partners purified
T1 construct: RNA polymerase subunit β, Mycobacterium smegmatis; In the cryo-EM sample it stood on one chain with β′ (β–β′ fusion of m2), within the core enzyme; also called RNAP β; source: E. coli BL21(DE3), purified as part of the RNAP core (β–β′ fusion)
T1 sequence: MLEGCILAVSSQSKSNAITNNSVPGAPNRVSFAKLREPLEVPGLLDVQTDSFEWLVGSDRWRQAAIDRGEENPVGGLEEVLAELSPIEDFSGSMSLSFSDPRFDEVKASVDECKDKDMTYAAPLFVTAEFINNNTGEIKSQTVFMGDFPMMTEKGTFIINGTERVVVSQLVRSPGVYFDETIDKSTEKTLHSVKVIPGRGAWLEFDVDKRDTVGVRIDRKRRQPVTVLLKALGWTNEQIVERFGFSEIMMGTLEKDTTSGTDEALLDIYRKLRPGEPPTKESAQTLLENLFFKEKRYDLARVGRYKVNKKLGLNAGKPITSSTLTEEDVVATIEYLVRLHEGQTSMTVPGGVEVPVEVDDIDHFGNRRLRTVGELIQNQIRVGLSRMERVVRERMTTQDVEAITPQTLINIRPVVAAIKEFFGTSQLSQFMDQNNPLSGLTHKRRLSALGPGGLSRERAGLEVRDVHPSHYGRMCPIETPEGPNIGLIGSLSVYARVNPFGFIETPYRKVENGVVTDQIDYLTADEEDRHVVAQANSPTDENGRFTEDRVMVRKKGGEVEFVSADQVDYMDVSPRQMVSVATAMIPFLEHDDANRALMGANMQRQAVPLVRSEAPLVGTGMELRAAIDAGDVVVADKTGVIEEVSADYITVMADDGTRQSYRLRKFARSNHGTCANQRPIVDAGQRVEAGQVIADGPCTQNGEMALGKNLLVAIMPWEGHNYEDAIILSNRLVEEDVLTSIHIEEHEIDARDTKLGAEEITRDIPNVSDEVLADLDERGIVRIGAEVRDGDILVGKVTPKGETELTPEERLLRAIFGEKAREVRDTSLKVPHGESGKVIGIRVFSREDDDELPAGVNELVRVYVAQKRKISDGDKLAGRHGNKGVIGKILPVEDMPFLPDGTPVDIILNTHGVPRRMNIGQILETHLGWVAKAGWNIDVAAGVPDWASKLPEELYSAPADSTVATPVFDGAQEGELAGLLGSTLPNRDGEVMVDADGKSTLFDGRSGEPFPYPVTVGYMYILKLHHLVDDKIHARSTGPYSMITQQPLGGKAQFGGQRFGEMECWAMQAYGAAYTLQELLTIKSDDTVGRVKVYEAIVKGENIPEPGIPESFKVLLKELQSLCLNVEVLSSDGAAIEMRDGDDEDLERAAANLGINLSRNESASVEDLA

[2] = biological target: T2, β′ subunit of Mycobacterium smegmatis RNA polymerase (as in the recombinant core m2) (Mycobacterium smegmatis, UniProt A0QS66 1-1317); test: as above; details: both partners purified
T2 construct: RNA polymerase subunit β′, Mycobacterium smegmatis; In the cryo-EM sample it stood on one chain with β (β–β′ fusion of m2), within the core enzyme; also called RNAP β′; source: E. coli BL21(DE3), purified as part of the RNAP core (β–β′ fusion)

binding result [1]: binds
binding result [2]: binds
B1: Mycobacterium smegmatis HelD (MSMEG_2174), recombinant (natural protein, UniProt A0QUE0 2-736, looked up)
chain: SGRDYEDELQSERDYVAGLYARLDAERAQSQRRYAAALREHGGTAVERDAEVRALAKDIARLNVADNGLCFGRLDTLDDARLYIGRLGIFDRDNDFEPLLLDWRAPMARPFYVATAANPENMRRRRQFHTLGRKVVDFTDEILGRPTGAEHDATNDAALLAAVNAPRGEGMRDIVATIQAEQDQVIRLDHTGVLVIEGGPGTGKTVVALHRVAYLLYTYRKQMERHGVLVVGPTPAFLDHIGRVLPSLGESDAVFMTPGDFVPGLHVTAEDTPEAAEVKGSLKILDVLKAAVADRQELPSEPIPIDLSDVTMRIDAETAKWARDEARKTGLPHNEARAEFVDVVTYVVTERAVARIGRGWLTRDDKHAWEKMRADVVGELEDHEQFNAALDALWPILTPEDVLAQLYTSHERLRAAGAPECLWRADGEAWTVSDVPLLDELVDLLGRNKAADEAAERERREEEAYAAGVLDLMVDREDLMDDEDHLLAQDLIDAEELADRFKEQDNRELSERAAADREWTYGHVVVDEAQELSEMDWRLLMRRCPRRSFTIVGDLAQRRSPAGARSWGAMLDSYVPGRWVYKSLSVNYRTPAEIMAVAAAVLAEFAPDATPPDSVRACGVAPWARQVTDDDIASAIAEFVSEEAGREGTSVVIGPPDVPGTVPPSETKGLEFDAVLVVEPERILADGPRGAAELYVALTRATQRLGVLYRDALPQALAGLAEGDAAATVEQRTSA
notes: HelD, gene MSMEG_2174 of Mycobacterium smegmatis strain ATCC 700084/mc2 155; the tag is followed by the second amino acid of MSMEG_2174; Codon-optimised synthetic gene in pET302/NT-His; also called Msm HelD; source: E. coli Lemo 21 (DE3), purified (HisTrap, TEV protease, Superdex 75)
